Blank lines part the entries; values can stand above or below the molecule they belong to. Where no end group is shown, it is not given here. [ ]: non-standard residue; d: D form. pT = C[C@@H](OP(=O)(O)O)[C@H](N)C(=O)O
Columns and labels:
human PLK1-PBD (371-594) [1] = biological target: T1, human PLK1-PBD (371-594) (human, UniProt P53350 371-594); assay: fluorescence polarization, FITC peptide 10 nM, PBD 0 to 4 µM
T1 construct: range 371-594; Made in E. coli as a GST fusion (pGEX6p-1); also called PBD of PLK1; purified PBD

human PLK1-PBD (371-594) [2] = biological target: T1, human PLK1-PBD (371-594); assay: fluorescence polarization, FITC peptide 10 nM
Description: (§1) The final protein concentrations ranged from 0 to 4 uM, and the final peptide concentration was 10 nM. Fluorescence polarization was analyzed 30 min after mixing the peptide and proteins in a 96-well plate using an INFINTE 200 PRO (Tecan). Binding curves were fitted using the GraphPad Prism software.

human PLK3-PBD (412-646) = biological target: T2, human PLK3-PBD (412-646) (human, UniProt Q9H4B4 412-646); assay: fluorescence polarization, FITC peptide 10 nM
T2 construct: range 412-646; GST fusion from pGEX6p-1, GST cleaved by 3C protease
T2 sequence (looked up): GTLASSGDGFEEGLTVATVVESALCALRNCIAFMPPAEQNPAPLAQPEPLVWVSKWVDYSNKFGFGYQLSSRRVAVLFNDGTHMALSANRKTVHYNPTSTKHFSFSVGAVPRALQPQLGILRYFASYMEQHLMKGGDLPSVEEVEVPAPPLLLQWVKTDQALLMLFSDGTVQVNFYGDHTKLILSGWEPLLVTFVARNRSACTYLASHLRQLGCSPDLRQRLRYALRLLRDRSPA
Description: as §1

human PLK2-PBD (451-685) = biological target: T3, human PLK2-PBD (451-685) (human, UniProt Q9NYY3 451-685); assay: fluorescence polarization, FITC peptide 10 nM
T3 construct: range 451-685; GST fusion from pGEX6p-1, GST cleaved by 3C protease
T3 sequence (looked up): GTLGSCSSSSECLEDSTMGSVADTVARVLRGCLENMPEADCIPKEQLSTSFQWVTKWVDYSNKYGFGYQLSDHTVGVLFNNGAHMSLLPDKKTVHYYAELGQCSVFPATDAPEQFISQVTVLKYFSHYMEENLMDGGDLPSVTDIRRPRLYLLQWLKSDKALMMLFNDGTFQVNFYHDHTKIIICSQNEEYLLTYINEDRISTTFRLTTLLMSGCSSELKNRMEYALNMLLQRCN
Description: as §1

[3] = biological target: T4, NCAPG2 (detected by immunoblotting in Flag-PLK1 immunoprecipitates) (human, UniProt Q86XI2 1-1143, limits assumed); assay: Flag-bead pull-down, NCAPG2 immunoblot
T4 construct: Apparently the cells' own NCAPG2
T4 sequence: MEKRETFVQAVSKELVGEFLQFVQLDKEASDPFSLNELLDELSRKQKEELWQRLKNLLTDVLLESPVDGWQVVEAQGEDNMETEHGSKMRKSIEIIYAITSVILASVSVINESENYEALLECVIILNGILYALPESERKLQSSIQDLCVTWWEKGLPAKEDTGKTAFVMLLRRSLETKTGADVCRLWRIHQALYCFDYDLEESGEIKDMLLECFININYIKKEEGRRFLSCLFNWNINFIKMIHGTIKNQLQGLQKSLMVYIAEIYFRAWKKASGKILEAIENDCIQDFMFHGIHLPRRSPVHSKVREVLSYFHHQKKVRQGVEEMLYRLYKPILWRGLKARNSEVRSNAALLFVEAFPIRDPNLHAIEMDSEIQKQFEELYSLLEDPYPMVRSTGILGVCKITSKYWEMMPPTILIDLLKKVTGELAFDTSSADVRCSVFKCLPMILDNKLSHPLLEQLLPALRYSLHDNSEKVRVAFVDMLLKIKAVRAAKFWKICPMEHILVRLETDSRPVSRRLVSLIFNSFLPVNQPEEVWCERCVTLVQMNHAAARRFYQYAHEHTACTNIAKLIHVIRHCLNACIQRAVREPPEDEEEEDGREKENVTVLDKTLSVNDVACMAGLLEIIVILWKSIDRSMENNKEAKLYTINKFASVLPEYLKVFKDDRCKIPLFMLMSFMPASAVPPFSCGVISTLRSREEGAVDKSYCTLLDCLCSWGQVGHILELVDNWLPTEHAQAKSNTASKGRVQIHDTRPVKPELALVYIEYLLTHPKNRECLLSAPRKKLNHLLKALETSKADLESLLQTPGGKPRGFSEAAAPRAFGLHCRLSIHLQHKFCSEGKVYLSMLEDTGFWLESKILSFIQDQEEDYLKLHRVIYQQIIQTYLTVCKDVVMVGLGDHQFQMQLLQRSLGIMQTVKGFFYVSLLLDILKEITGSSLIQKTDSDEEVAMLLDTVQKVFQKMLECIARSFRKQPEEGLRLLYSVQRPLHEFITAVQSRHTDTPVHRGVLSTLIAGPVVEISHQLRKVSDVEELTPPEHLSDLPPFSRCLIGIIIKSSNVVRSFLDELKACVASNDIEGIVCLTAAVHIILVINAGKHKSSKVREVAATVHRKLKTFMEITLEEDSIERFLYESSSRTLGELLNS
Description: The primary antibodies were purchased from commercial sources as follows: Histon H3 pS10 (Abcam, Cambridge, UK), NCAPG2 (Novus Biological, 1/1000), PLK1 (Novus Biological, 1/1000), BubR1 (BD Biosciences, 1/1000), β-actin (Sigma-Aldrich, 1/5000), and CREST (ImmunoVision, 1/1000). BubR1 676 antibodies (1/10000) were prepared as previously reported (Elowe, S., et al. Tension-sensitive Plk1 phosphorylation on BubR1 regulates the stability of kinetochore microtubule interactions. Genes Dev 21, 2205-19 (2007)). The precipitates were washed with TAP buffer three times at 4° C., re-suspended in 20 μl of 2X Sample buffer (125 mM Tris (pH 6.8), 200 mM DTT, 4% SDS, 20% Glycerol, 0.004% Bromophenol Blue) and proteins were denatured at 100° C. for 5 min.
For the detection of proteins using the immunoblottings, subjects were protein complexes from immunoprecipitation or whole cell lysates harvested from indicated conditions. Whole cells were harvested with lysis buffer (20 mM Tris, 5 mM EDTA, 10 mM Na₄P₂O₇, 100 mM NaF, 2 mM Na₃VO₄, 1% Np-40, 0.2% Protease Inhibitor Cocktail, and 1 mM PMSF) and centrifuged at 10,000 rpm, 4° C., 10 min. Protein concentration was determined using BCA™ protein assay kit (Pierce, Rockford, USA). […]

T1 sequence (P53350 371-594 limits assumed): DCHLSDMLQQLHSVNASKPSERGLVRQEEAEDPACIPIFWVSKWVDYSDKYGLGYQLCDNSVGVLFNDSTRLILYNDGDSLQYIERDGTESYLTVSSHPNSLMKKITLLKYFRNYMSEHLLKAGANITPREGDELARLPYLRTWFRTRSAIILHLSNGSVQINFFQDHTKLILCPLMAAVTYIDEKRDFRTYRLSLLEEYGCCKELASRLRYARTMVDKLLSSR

Kd (human PLK1-PBD (371-594) [1]): 69.9 nM
Molecule: FITC-labelled 1010pT peptide (GVLSpTLI)

binding result (human PLK1-PBD (371-594) [2]): no binding (tested: protein 0 to 4 uM)
Molecule: GVLSDLI (also: FITC label, site not given here) [FITC-labeled 1010D peptide (GVLSDLI)]

binding result (human PLK1-PBD (371-594) [2]): no binding (tested: protein 0 to 4 uM)
Molecule: GVLSELI (also: FITC label, site not given here) [FITC-labeled 1010E peptide (GVLSELI)]

binding result (human PLK3-PBD (412-646)): no binding (tested: protein 0 to 4 uM) | binding result (human PLK2-PBD (451-685)): no binding (tested: protein 0 to 4 uM)
B1: FITC-labelled 1010pT peptide (GVLSpTLI) (peptide)
peptide: GVLS[pT]LI
modifications: also: FITC label, site not given here
notes: this peptide carries pThr at the fifth position; also called phosphorylated 7-mer peptide 1006GVLS-pT-LI1012

binding result [3]: no binding
B2: Flag-Plk1^FAA (other, UniProt P53350 1-603, looked up)
chain: MSAAVTAGKLARAPADPGKAGVPGVAAPGAPAAAPPAKEIPEVLVDPRSRRRYVRGRFLGKGGFAKCFEISDADTKEVFAGKIVPKSLLLKPHQREKMSMEISIHRSLAHQHVVGFHGFFEDNDFVFVVLELCRRRSLLELHKRRKALTEPEARYYLRQIVLGCQYLHRNRVIHRDLKLGNLFLNEDLEVKIGDFGLATKVEYDGERKKTLCGTPNYIAPEVLSKKGHSFEVDVWSIGCIMYTLLVGKPPFETSCLKETYLRIKKNEYSIPKHINPVAASLIQKMLQTDPTARPTINELLNDEFFTSGYIPARLPITCLTIPPRFSIAPSSLDPSNRKPLTVLNKGLENPLPERPREKEEPVVRETGEVVDCHLSDMLQQLHSVNASKPSERGLVRQEEAEDPACIPIFWVSKFVDYSDKYGLGYQLCDNSVGVLFNDSTRLILYNDGDSLQYIERDGTESYLTVSSHPNSLMKKITLLKYFRNYMSEHLLKAGANITPREGDELARLPYLRTWFRTRSAIILHLSNGSVQINFFQDATALILCPLMAAVTYIDEKRDFRTYRLSLLEEYGCCKELASRLRYARTMVDKLLSSRSASNRLKAS
notes: also called FAA mutant; substrate non recognizable FAA mutant; not shown: Flag tag

— patent US20160347801A1 (NATIONAL CANCER CENTER, published 2016)
